± gives the uncertainty stated by the source.
Experiment: amyloid nucleation score (Sup35N fusion, yeast selection) (log enrichment); library NNK3; higher = more nucleation; inactive = no reads after selection
Outline: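 The nucleation score is the log enrichment of output over input reads, calculated with DiMSum and centred on the mode score of non-aggregating sequences. Sequences with under 100 input reads were excluded. Reads came from Illumina sequencing of plasmid inserts from psi-negative yeast expressing Sup35N fused to peptides of 20 random codons, induced 24 hours with 100 μM copper sulfate and grown 7 days at 30°C without adenine and uracil.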

Substance | amyloid nucleation score
TRCTGSYNNYG | inactive
LYNRKHFTSM | -0.638 ± 0.96
ISYVKFY | inactive
CRDYYYHSQYCVVASVGTVV | inactive
VNNPVLFFQ | inactive
NLGYALICQSRVGGTFLVNS | inactive
MGNFSFE | inactive
YLDRKVCSGNALRYLK | inactive
EIGYYFNFKRLGAS | inactive
KGSHFFAIFGW | inactive
NEIMVTLHNV | inactive
FEFKSIGNRLGSYTQASWFA | inactive
KIFVSFNKSKLEVHPPLKVI | inactive
GCLDQFGCGGTPVKVFATNV | -1.39 ± 2.5
AVNMLESFFGGVPLRSLCFV | inactive
PFLTTKIVQVAGDLVNMFYE | 1.24 ± 0.16
DFRSSRLHSIITTQFIYFYD | inactive
CLGFSL | inactive
YFGFIVKISYTVLFGLGSKC | inactive
LVYSDCHRIISHWFFRYTWQ | inactive
RGDMMGLSTENTLLLYDVGR | inactive
NVGTS | inactive
THESATSYLISGFGIGFIWC | 1.49 ± 0.089

Substance | amyloid nucleation score
LVSVGSIVTSLEFNTGCLWA | inactive
WLCCNKTETPQSTRRWQEDD | inactive
MMNSWDPVMLYSYGNTEVVH | inactive
FCVIMSM | inactive
STVSYGVGHQNM | inactive
LYVYTMR | inactive
LVYRMMGSWVGPIRVYFNML | inactive
CEVRGCNYTYSVGERCSQN | inactive
SIWWYNLVVI | inactive
FWGLSAMSLEVRGWRMGGEL | 0.196 ± 0.54
FGVSSP | inactive
LYLGLFVSWCSLKSTAWFGK | inactive
MGHDCHRDW | inactive
IGLSLGCVFVMDNVLNARN | 1.55 ± 0.076
YVCGKF | inactive
CGSWYSCCKNINEVARSYTG | inactive
LFTELGSILF | inactive
TKGTKDRPPYTVVRLQYGNS | inactive
NSNLDSSVYSVILYGLGVWM | 1.18 ± 0.094
HNCPFFSTDMKCSKNIHIFG | 1.78 ± 0.077
DLNDGWGWKRLTFQSVRCGE | inactive
TLGLAVFDNSMDRWYEDVKK | inactive
VWNFPNILCFGWIFRA | 1.64 ± 0.093

Substance | amyloid nucleation score
RFMFSLFMNEGNMLHMLRRV | inactive
VRCVGGHSHDHWETVWGVFG | inactive
ASLLLTYWVVTEVCRLDLGL | inactive
PFGWSVLGTGASGAEIQLVE | inactive
ANIGKIVKEHRQQSIQHCID | inactive
EGILPYLRYLFRNLSVGCCW | inactive
RVVYL | -0.667 ± 1.8
LIYILWH | inactive
AVKHHSSTFIFTMGIKLLWL | inactive
LRSYFALINRLPCTCTRGGM | inactive
YIRIDTGLLCVCGLSQEGVV | inactive
GMRRFHNVRINVVSRWWFLE | 0.545 ± 0.28
RFMQWGIFS | inactive
DHRRLPSCPIFDWFTLNRGP | inactive
IWSNTYPSIRSLWMSFGVVI | inactive
VPGELGALGQACLKEDFSKG | inactive
EPNRVLMKVQYRNSPCYTRR | inactive
SIESPSNIMS | inactive
NRTSLCKEDLVRVSFDGYLL | inactive
DQGDRSFCSNLRLGYGVRAW | inactive
GRMFVNVNFAIQCYMAFTYL | 2.42 ± 0.071
VERSSLVEWSCDRVSKWYFV | 0.298 ± 0.74
CGVEHYWRGLVG | inactive

Substance | amyloid nucleation score
RLSRSRKRYFFGFR | inactive
PGMISSQGSYTFRAWAVSLR | inactive
TVLCFSACQENFSSSLRRLY | inactive
SLALFFGIHPNLCFTDTSST | 0.559 ± 0.2
GFLLFLAVWRDTIGIVLVVL | inactive
KICSIVPLYIRGGHSLGSVV | inactive
NTVLATYRTNAVFGKTTHYN | inactive
EVVPCCF | inactive
IALGRFTCNGIVVVSF | inactive
LELVRG | inactive
IWRLLGSWVSVTMDIYHWSS | inactive
LNSMGYFILFYIYRFLENLD | inactive
LCGDYGV | inactive
MWFPSVLWTIISQSYEMQKL | 0.783 ± 0.12
KRLTMDLFDNCPMLYECEFT | inactive
TGSSTDLSNYNGLGYLLNNS | 0.479 ± 0.2
DRHVSQFSVWDW | inactive
KFGWWLFDSVSDTNLWYRRS | inactive
GCIKGVICLTHC | inactive
CRWEVCVVLFLMNCDKNGSC | inactive
NYVVSFYISSNFWYDVVNCD | 0.294 ± 0.22
TWFTSFYCFSNNAYLYF | 1.8 ± 0.066
LLVWNLMTRFYYF | inactive

Substance | amyloid nucleation score
ILTKRTAAFDPLGLKNWERC | -0.398 ± 1.7
ASHRGYRQRRKDVFHGIEA | inactive
KDLRYTVFEVWDKYWPLTGL | inactive
RSRET | inactive
DMCIHWDEGNAWWYKSMASV | inactive
FLLDMGVNALSW | inactive
IRLLATF | inactive
LCKDLDTSCVGSFYIFRQKG | inactive
LGRYWHVIKLDLVPHMKWCE | inactive
RNSSNGSVHKQVFAVELKVP | inactive
IDSDMDKNS | inactive
RCQATWWNIIFFAIGDCDLL | inactive
GFFTYTTRSGDSSYGVEASA | -0.289 ± 1.1
LNSKSSLVPNMLWDMREHAI | 1.04 ± 0.12
WNVLPATMMRFIRDMTGH | inactive
LVFHQDMCGNYYFRH | 0.953 ± 0.13
LRGITLSMQGCTDWFVMYLC | inactive
NEDST | inactive
YIHIGAM | inactive
ELISRMSFRSLCLAFFISVC | inactive
TSGAANHYLYSSVSWTFFLL | 0.764 ± 0.19
RYYGSFVEPRSFSRN | inactive
SSNYNLKTLNSISRFFDLES | inactive

Substance | amyloid nucleation score
YRDFSEGSFPLIRVLMGMVG | inactive
PVLEYKVL | inactive
TDSPLRLKRDYSPNSFCRSG | 0.005 ± 1.1
MDEVWFPSKGCDLAVRNCLM | inactive
FLPDKGYTWKGTLWRWESNN | inactive
CFPLSVK | inactive
WRYWDSFFL | inactive
HCEFRSQSDTNVVNLCGQGW | inactive
GKMLRWMKH | inactive
VTLSGCIDLVWVCGVT | 2.01 ± 0.099
YCGYNR | inactive
YYNVAMRCRSHHTRMSIFWC | inactive
MYGPMVWVDLYTCKTHRGAS | inactive
TIACS | inactive
FTVGILFGNLHLEFGVKVND | 1.6 ± 0.071
HVFPVIAPYRLMLNLKWFVY | inactive
LGGKDSASILIVPWTILSGL | inactive
RTDYVISNVAMCNSLLC | 2.8 ± 0.082
TDCFGLMSSALP | inactive
ICTKSALYQTMLS | inactive
NRAGGICDKIRAQGYSYHSM | 0.475 ± 0.72
HQVNVLWQVYILAFSLTSRH | inactive
TNYYFALLGYYHLFSSTGHR | 2.66 ± 0.064

Substance | amyloid nucleation score
CQYRVTSYHSSWFFSEAMHP | -0.268 ± 0.7
SLILERFNRHCVWGVSVKKH | inactive
YQVRV | 0.056 ± 0.33
YGTMFLENTYNPFPVGSHVF | inactive
PSTVTFRWFIVVSPLRHWFA | inactive
CLWRRCMPSHPMVEVSRLIW | inactive
VLGYILMRLRLYKIQVDISG | inactive
KGGTLRRLTLSGTGTSQPSE | inactive
AGAVVDV | inactive
GCAGRSWTGYRVHAASV | inactive
LILAMSRLALWSL | inactive
MLCDVSKVDLSRLLGAGVYD | inactive
VLCHQCWCRKIWPMN | inactive
MVFCNGFGYGASNFGNNSAS | inactive
LVNLAELDFVECCLENKMQW | inactive
VVLDSVVWGFDELSRLMSGA | inactive
HFYYPLCWVCSVLLSHLVPD | inactive
FAAAFDRGQGKS | inactive
PRHWFREFMGMVMI | 0.317 ± 0.51
IKSPLDFFNVYVMVLGNWQI | inactive
VFLSSELSTLLVVYRLLGSG | inactive

From the supplement of paper PMC12042874
